# Test results reported in patent US10363306B2, “Cytokines and neuroantigens for treatment of immune disorders” (East Carolina University, priority 2009, dated 2019).
# B1: IFNβ-NAg: Fusion protein: rat IFNβ, enterokinase linker (GDDDDKG), encephalitogenic 73-87 peptide of guinea pig MBP, C-terminal 6-histidine tag (protein)
# chain: IDYKQLQFRQSTSIRTCQKLLRQLNGRLNLSYRTDFKIPMEVMHPSQMEKSYTAFAIQVMLQNVFLVFRSNFSSTGWNETIVESLLDELHQQTELLEIILKEKQEERLTWVTSTTTLGLKSYYWRVQRYLKDKKYNSYAWMVVRAEVFRNFSIILRLNRNFQNGDDDDKGPQKSQRSQDENPVVHHHHHH
# Columns and labels:
# [1] = test system: thymocytes; assay: Induction of class I MHC expression on thymocytes (flow cytometry); type: cell-based; settings: 2 days of culture
# Procedure: (§1) FIG. 1. The IFNβ-NAg his-tagged fusion protein was biologically active and was purified on nickel resins. (A) To assess whether IFNβ-NAg induced class I MHC expression, thymocytes (5×10^6/ml in complete RPMI) were cultured with or without IFNβ-NAg for 2 days and then were stained with B5 (anti-MHC-I), OX18 (anti-MHC-I), R73 (anti-TCRβ), or OX81 (anti-IL4; isotype control) and were analyzed by flow cytometry. (B) To assess IFNβ-mediated anti-proliferative activity, supernatants from two independently derived IFNβ-NAg expression systems as well as supernatants from several control expression systems were added at designated titrations (x-axis) to IL-2 stimulated cultures of BN-GP T cells. (C) To assess the specificity of anti-proliferative activity, baculovirus supernatants containing IFNβ-NAg were added at designated titrations to cultures of rat (R1T, BN-GP, RsL.11T, RsL.11, or Conal.8D9) or mouse (CTLL) T cells. Proliferative assays (B & C) were pulsed with [^3H]thymidine on the second day of a 3-day culture. (D) Shown is a representative SDS-PAGE analysis of purified IFNβ-NAg.
# T cells were incubated with a 1/20 titration of a concentrated supernatant containing the designated mAb for 45 minutes at 4° C. […] Data were acquired with a Becton Dickinson FACScan flow cytometer and were analyzed with the CELLQuest software program. […]
# [2] = test system: R1T; assay: Anti-proliferative/killing activity on R1T T cells; type: cell-based, rat; settings: baculovirus supernatants
# Procedure: as §1, with “IFNβ-NAg. […]” for “IFNβ-NAg.”
# (§2) Cultures were pulsed with 1 uCi of [^3H]thymidine (6.7 Ci/mmol, New England Nuclear) during the last day of a 3 or 4 day culture. […] [^3H]thymidine incorporation into DNA was measured by use of a Wallac 1450 Microbeta Plus liquid scintillation counter. […]
# [3] = test system: EAE in SJL mice; assay: Treatment of passively induced EAE and second active challenge in SJL mice; type: in vivo; settings: murine IFNβ/PLP139-151 fusion protein; 2 nanomoles s.c. days 12, 14, 16
# Procedure: FIG. 8. […] Shown are the time-courses of EAE (A) and the percent maximal weight (B) from example 4.
# On day 0, mice were passively challenged with activated, encephalitogenic T cells specific for the PLP139-151 epitope. […] On day 12, three groups of mice were matched for clinical severity. On days 12, 14, and 16, mice were treated with the IFNβ-NAg fusion protein (2 nanomoles), a synthetic PLP139-151 peptide (2 nanomoles), or saline. Treatments were given by subcutaneous injections of proteins or peptides in saline. On day 24, mice were actively challenged to induce a second bout of EAE by challenge with 200 micrograms of PLP139-151 in Complete Freund's Adjuvant. […] Furthermore, the fusion protein promoted a tolerogenic effect that ameliorated the subsequent bout of EAE (FIG. 8A). These observations support the concept that the IFNβ-NAg fusion protein may have clinical activities conducive for the treatment of autoimmune demyelinating disease of the central nervous system.
# [4] = test system: Conal.8D9; assay: Anti-proliferative/killing activity on Conal.8D9 T cells; type: cell-based, rat; settings: baculovirus supernatants
# Procedure: as §1, with “IFNβ-NAg. […]” for “IFNβ-NAg.”
# as §2
# [5] = test system: RsL.11 clone; assay: Anti-proliferative/killing activity on RsL.11 T cells; type: cell-based, rat; settings: baculovirus supernatants
# Procedure: as §1, with “IFNβ-NAg. […]” for “IFNβ-NAg.”
# as §2
# [6] = test system: RsL.11T; assay: Anti-proliferative/killing activity on RsL.11T T cells; type: cell-based, rat; settings: baculovirus supernatants
# Procedure: as §1, with “IFNβ-NAg. […]” for “IFNβ-NAg.”
# as §2
# [7] = test system: CTLL T cells; assay: Anti-proliferative/killing activity on CTLL T cells; type: cell-based, mouse; settings: murine CTLL T cells; baculovirus supernatants
# Procedure: as §1, with “IFNβ-NAg. […]” for “IFNβ-NAg.”
# as §2
molecule,measurement,setting,value
B1,expression of MHC-I on immature thymocytes,[1]; 1% titration of baculovirus expression supernatant,induced the expression of MHC-I
same,TCRβ expression,[1]; baculovirus expression supernatant,did not affect TCRβ expression
same,cell death of T cell line,[2],did not kill
same,EAE-associated cachexia (percent maximal weight),[3],acutely reversed EAE-associated cachexia
same,cell death of T cell line,[4],directly caused the death
same,cell death of T cell line,[5],directly caused the death
same,cell death of T cell line,[6],directly caused the death
same,cell death of T cell line,[7],did not kill
